How the values were obtained:
endosome = settings: Sugita et al. 2008; cited from earlier work
[1] = CD spectrophotometry of FITC-labelled peptides; type: physicochemical
[2] = test system: HEK-293 cells expressing GFP 11+GFP 1-10 fragments; test: Effect of cargo peptides on reconstitution of split GFP activity, transfected constructs (FIG. 17); type: cell-based, human; settings: peptide fused to Sumo-GFP 11, expressed from transiently transfected constructs; independent of uptake
Excerpt: FIG. 17 is a graphical representation showing the effect of cargo proteins on reconstitution of split GFP activity in isolated HEK-293 cells expressing GFP 11+GFP 1-10 fragments. HEK-293 cells transfected with GFP 1-10 vectors pcDNA4/TO vector [TO hGFP1-10(a)] or pcDNA4/HM vector [HM hGFP1-10(a)] are shown on the abscissa. Relative fluorescence for each GFP 11 construct added to the cells, normalized for activity in the presence of the MyD88_S11 and mGFP1-10 constructs, is indicated on the y-axis. The GFP 11 constructs lacking cargo peptides were: MyD88-GFP 11 fusion (MyD88_S11); Mal-GFP 11 fusion (Mal_S11), β-actin-GFP 11 fusion β-actin_S11), and Sumo-GFP 11 fusion (Sumo_S11). […]
The inventors have also considered the effect of cargo protein on reconstitution of split GFP activity in isolated HEK-293 cells expressing GFP 11+GFP 1-10 fragments. HEK-293 cells were transfected with GFP 1-10 vectors pcDNA4/TO vector [TO hGFP1-10(a)] or pcDNA4/HM vector [HM hGFP1-10(a)], and recombinant GFP 11-encoding constructs were added to the cells, and fluorescence activity was determined as a normalized value relative to fluorescence obtained for transfections employing MyD88-GFP11 and mGFP1-10 constructs. […]

[3] = molecular target: hGFP1-10(a) (humanized variant of commercially-available mGFP1-10, 'A' variant, expressed from pcDNA4/TO or pcDNA4/HM); test: cell-based or functional assay

transferrin: named in cited endosome escape study
Efficiency of endosome escape (endosome): low

C20_ABH_0304_1746: identified CPP, 38 aa; Transposase fragment [Bordetella pertussis] (PLKPKKPKTQEKKKKQPPKPKKPKTQEKKKKQPPKPKR)
CD spectral analysis, conformation ([1]; NaF Buffer pH 7.2): Strong Beta-turn
CD spectral analysis, conformation ([1]; SDS Micelles pH 7.2): Strong Beta-turn

T09_HBM_0103_0167: identified CPP, 32 aa (PSSTPATNVARPRLNPIRGHKFALAVPNSRTR)
CD spectral analysis, conformation ([1]; NaF Buffer pH 4.5): Random coil
CD spectral analysis, conformation ([1]; NaF Buffer pH 7.2): Coil with Beta-turn
CD spectral analysis, conformation ([1]; SDS Micelles pH 4.5): Random coil
CD spectral analysis, conformation ([1]; SDS Micelles pH 7.2): Coil with Beta-turn

PYC35: cargo protein, which is not a CPP (RSDYKDDDDKAYQSIRSGGIESSSKRER)
Decrease of Sumo_S11 fluorescence (reconstitution of split GFP activity) [2]: no-effect

TAT-Sumo-GFP 11 fusion
decrease of GFP fluorescence (split GFP reconstitution) relative to Sumo S11 in transiently transfected HEK-293 cells [3]: > 50%

T08_HBM_0104_0084: identified CPP, 33 aa (RKQKSLQTKLAENPPVPRKKRQSRPRWKQWLQK)
CD spectral analysis, conformation ([1]; NaF Buffer pH 7.2): Partially helical
CD spectral analysis, conformation ([1]; SDS Micelles pH 4.5): Helical
CD spectral analysis, conformation ([1]; SDS Micelles pH 7.2): Helical

Source: patent publication US20160146786A1, “Method of monitoring cellular trafficking of peptides” (PHYLOGICA LIMITED, priority 2013, published 2016)
